B1: human IL-17RC extracellular domain (receptor)
chain: LERLVGPQDATHCSPGLSCRLWDSDILCLPGDIVPAPGPVLAPTHLQTELVLRCQKETDCDLCLRVAVHLAVHGHWEEPEDEEKFGGAADSGVEEPRNASLQAQVVLSFQAYPTARCVLLEVQVPAALVQFGQSVGSVVYDCFEAALGSEVRIWSYTQPRYEKELNHTQQLPDCRGLEVWNSIPSCWALPWLNVSADGDNVHLVLNVSEEQHFGLSLYWNQVQGPPKPRWHKNLTGPQIITLNHTDLVPCLCIQVWPLEPDSVRTNICPFREDPRAHQNLWQAARLQLLTLQSWLLDAPCSLPAEAALCWRAPGGDPCQPLVPPLSWENVTVDKVLEFPLLKGHPNLCVQVNSSEKLQLQECLWADSLGPLKDDVLLLETRGPQDNRSLCALEPSGCTSLPSKASTRAARLGEYLLQDLQSGQCLQLWDDDLGALWACPMDKYIHKR
B2: human IL-17F homodimer (ligand)
chain: RKIPKVGHTFFQKPESCPPVPGGSMKLDIGIINENQRVSMSRNIESRSTSPWNYTVTWDPNRYPSEVVQAQCRNLGCINAQGKEDISMNSVPIQQETLVVRRKHQGCSVSFQLEKVLVTVGCTCVTPVIHHVQ

How the values were obtained:
[1] = molecular target: human IL-17A/F heterodimer, Arg77 to alanine mutant (F-chain) (human, UniProt Q16552 24-155; Q96PD4 31-163, R77A); test: SPR
[2] = molecular target: B1; test: SPR

Binder | Kd [1] [nM] | Kd [2] [nM]
B1 | 5.4 | 
B2 |  | 3.5

Reference: article PMC5566378 (2017)
